The values below are quoted from earlier work in publication PMC4017372.

Data set [1] deals with HypB (Helicobacter pylori) (UniProt O25560).
Data set [2] concerns the target UreE (Helicobacter pylori) (UniProt B5Z672). Briefly: ITC. (ITC needs no label: the signal is the heat of the interaction.)
UniProt B5Z672, sequence (B5Z672 whole entry): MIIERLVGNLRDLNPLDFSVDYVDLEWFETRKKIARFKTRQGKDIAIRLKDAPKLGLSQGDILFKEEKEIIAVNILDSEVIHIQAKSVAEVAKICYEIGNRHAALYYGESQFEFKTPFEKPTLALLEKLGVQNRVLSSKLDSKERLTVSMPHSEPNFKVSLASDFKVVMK

UniProt O25560, sequence (O25560 whole entry): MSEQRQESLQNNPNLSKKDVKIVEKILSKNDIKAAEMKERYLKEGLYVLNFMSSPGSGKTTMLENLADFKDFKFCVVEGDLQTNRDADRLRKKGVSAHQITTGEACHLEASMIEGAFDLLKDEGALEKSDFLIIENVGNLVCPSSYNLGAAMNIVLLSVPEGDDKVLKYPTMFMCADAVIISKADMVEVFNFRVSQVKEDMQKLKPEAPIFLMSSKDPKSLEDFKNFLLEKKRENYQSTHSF

As for HypA (from UniProt P0A0U5), the Kd in data set [1] was 52 µM.
In the case of UreG (from UniProt B6JPH1), the Kd in data set [2] was 4 µM.

As usually defined, the Kd is the equilibrium constant for the complex coming apart.
